Results reported in publication PMC3500527 (Cancer cell, 2012).
Changes are numbered by the printed parent chain. One block for each binder: values may come before it.

Columns and labels:
[1] = biological target: T1, profilin-2 (immunoprecipitated from cell lysates; mass spectrometry) (UniProt P35080 1-140); test: co-IP
T1 sequence (looked up): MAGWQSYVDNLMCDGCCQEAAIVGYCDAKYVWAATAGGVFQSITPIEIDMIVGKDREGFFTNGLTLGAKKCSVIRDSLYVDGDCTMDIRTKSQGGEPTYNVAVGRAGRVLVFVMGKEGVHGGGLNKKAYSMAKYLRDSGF

Cy3-hVASP1-240aa = Cy3-hVASP1-240aa (human, UniProt P50552 1-240, Cy3 fluorophore (site not stated)); test: AUC
Cy3-mEVL1-235aa = Cy3-mEVL1-235aa (mouse (from the label mEVL), UniProt P70429 1-235, Cy3 fluorophore (site not stated)); test: AUC
HA-EVL = biological target: T2, HA-EVL (UniProt Q9UI08 1-416); test: co-IP
T2 sequence (looked up): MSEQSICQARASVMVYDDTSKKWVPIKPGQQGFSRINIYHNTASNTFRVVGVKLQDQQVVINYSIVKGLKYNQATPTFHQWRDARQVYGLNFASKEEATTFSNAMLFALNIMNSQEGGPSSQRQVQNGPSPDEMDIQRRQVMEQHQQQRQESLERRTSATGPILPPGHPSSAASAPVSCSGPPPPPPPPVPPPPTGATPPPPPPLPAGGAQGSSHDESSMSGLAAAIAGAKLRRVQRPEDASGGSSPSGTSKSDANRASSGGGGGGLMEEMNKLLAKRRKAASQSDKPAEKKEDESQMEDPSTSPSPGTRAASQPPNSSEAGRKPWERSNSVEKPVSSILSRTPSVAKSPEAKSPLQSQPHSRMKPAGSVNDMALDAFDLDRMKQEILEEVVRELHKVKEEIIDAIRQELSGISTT

- fold immunoprecipitated relative to profilin-1 [1]: 7 fold
B1: EVL (immunoprecipitated with profilins; mass spectrometry) (natural protein, UniProt Q9UI08 1-416, looked up)
chain: T2 sequence (looked up)

- binding result (Cy3-hVASP1-240aa): binds
- binding result (Cy3-mEVL1-235aa): binds
B2: mouse profilin-2a (natural protein, UniProt Q9JJV2 1-140, looked up)
chain: T1 sequence (looked up) with I46V

- fold immunoprecipitated relative to profilin-1 (HA-EVL): 10 fold
B3: profilin-2 (natural protein, human (endogenous in SUM159), UniProt P35080 1-140, looked up)
chain: T1 sequence (looked up)

- fold immunoprecipitated relative to profilin-1 [1]: 1.8 fold
B4: VASP (immunoprecipitated with profilins) (natural protein, UniProt P50552 1-380, looked up)
chain: MSETVICSSRATVMLYDDGNKRWLPAGTGPQAFSRVQIYHNPTANSFRVVGRKMQPDQQVVINCAIVRGVKYNQATPNFHQWRDARQVWGLNFGSKEDAAQFAAGMASALEALEGGGPPPPPALPTWSVPNGPSPEEVEQQKRQQPGPSEHIERRVSNAGGPPAPPAGGPPPPPGPPPPPGPPPPPGLPPSGVPAAAHGAGGGPPPAPPLPAAQGPGGGGAGAPGLAAAIAGAKLRKVSKQEEASGGPTAPKAESGRSGGGGLMEEMNAMLARRRKATQVGEKTPKDESANQEEPEARVPAQSESVRRPWEKNSTTLPRMKSSSSVTTSETQPCTPSSSDYSDLQRVKQELLEEVKKELQKVKEEIIEAFVQELRKRGSP
